Measured values as given in patent publication US20090092640A1.

Target: mutant murine LIGHT (a.a. 79-82, EKLI, deleted), expressed on the cell surface (murine) (UniProt Q9QYH9)
Experiment: cell-based or functional assay

Chain of LTβR-human Ig (Fc fusion) (P50284 31-223): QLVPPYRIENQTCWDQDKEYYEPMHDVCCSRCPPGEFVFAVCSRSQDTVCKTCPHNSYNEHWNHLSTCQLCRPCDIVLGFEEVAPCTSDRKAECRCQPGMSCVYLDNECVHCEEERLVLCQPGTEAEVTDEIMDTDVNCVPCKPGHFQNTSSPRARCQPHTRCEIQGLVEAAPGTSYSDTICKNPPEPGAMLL
Chain of mutant murine LIGHT (a.a. 79-82, EKLI, deleted), expressed on the cell surface (murine) (Q9QYH9 other isoform, or with tags, fused parts or gaps mutant limits assumed): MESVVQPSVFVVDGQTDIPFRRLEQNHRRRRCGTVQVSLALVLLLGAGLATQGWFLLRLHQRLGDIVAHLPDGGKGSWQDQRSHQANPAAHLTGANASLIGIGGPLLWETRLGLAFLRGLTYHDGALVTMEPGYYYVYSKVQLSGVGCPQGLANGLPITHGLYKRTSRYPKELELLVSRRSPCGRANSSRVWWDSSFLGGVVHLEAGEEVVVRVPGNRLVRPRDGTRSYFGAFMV

LTβR-human Ig (Fc fusion)
Incidence of tumor growth (Percentage), 10^6 Ag104L^d-LIGHT^m in C3B6F1 mice treated with LTβR-Ig: 100 % (6/6 mice)
